According to patent US20200247856A1:

Legend:
[1] = target: T1, Myostatin (R&D Systems, Catalogue number 788-G8-010/CF) (UniProt O14793); experiment: cell-based or functional assay
T1 sequence (looked up): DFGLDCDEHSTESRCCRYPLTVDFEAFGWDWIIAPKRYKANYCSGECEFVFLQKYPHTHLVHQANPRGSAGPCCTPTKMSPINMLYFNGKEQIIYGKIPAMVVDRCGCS

[2] = target: Activin A (R&D Systems, Catalog number 338-AC-050 CF) (UniProt P08476); experiment: cell-based or functional assay
[3] = target: Activin A (R&D Systems, Catalog number 338-AC-050 CF) (UniProt P08476); experiment: BIAcore SPR; fusion captured on anti-human Fc; activin A as analyte (2.5-0.15 nM); lower end of the printed range 1-2 pM; fusion captured on anti-human Fc, activin A tested 2.5-0.15 nM
[4] = target: FcRn receptor; experiment: FcRn binding, 'standard methods'
[5] = target: Fc Gamma Receptor RIA (R&D Systems, Catalog #1257-FC-050) (UniProt P12314); experiment: SPR; fusion immobilised on CM5 chip; Fc gamma receptor IA as analyte (62.5-0.49 nM)
Sequence of Fc Gamma Receptor RIA (R&D Systems, Catalog #1257-FC-050) (P12314 16-288 limits assumed): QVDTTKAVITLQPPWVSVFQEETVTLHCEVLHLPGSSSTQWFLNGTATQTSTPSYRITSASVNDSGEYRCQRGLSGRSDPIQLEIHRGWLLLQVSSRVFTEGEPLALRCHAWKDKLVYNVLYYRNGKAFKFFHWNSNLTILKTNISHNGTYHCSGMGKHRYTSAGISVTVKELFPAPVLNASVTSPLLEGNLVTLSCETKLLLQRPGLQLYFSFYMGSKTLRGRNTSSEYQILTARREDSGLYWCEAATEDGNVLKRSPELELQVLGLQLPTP

[6] = target: T1, Myostatin (R&D Systems, Catalogue number 788-G8-010/CF); experiment: BIAcore SPR; fusion captured on anti-human Fc; myostatin as analyte (5-0.31 nM)
[7] = target: Activin A (R&D Systems, Catalog number 338-AC-050 CF) (UniProt P08476); experiment: BIAcore SPR; fusion captured on anti-human Fc; activin A as analyte (2.5-0.15 nM); upper end of the printed range 1-2 pM; fusion captured on anti-human Fc, activin A tested 2.5-0.15 nM

Sequence of Activin A (R&D Systems, Catalog number 338-AC-050 CF) (P08476 311-426): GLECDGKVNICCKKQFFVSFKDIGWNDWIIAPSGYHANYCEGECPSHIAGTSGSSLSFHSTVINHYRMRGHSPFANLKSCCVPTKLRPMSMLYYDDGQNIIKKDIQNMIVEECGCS
Sequence of monoFS315K(76,81,82)E-hFcLALA (Fc fusion) (chain): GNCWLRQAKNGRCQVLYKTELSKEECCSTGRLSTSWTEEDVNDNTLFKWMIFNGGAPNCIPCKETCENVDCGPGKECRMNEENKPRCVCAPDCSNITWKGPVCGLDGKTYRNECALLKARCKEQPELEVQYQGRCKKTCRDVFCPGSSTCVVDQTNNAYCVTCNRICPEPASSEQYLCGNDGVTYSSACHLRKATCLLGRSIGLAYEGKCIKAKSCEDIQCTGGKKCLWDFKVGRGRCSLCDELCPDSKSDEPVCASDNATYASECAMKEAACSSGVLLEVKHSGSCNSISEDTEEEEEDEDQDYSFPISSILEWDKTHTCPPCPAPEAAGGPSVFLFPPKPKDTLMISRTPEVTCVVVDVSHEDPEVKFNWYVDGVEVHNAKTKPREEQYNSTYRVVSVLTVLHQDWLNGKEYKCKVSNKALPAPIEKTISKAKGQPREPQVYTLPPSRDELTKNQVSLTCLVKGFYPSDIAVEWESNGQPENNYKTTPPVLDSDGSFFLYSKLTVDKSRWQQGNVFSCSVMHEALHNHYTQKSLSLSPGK

Which Myostatin IC50 (nM), luciferase gene reporter assay (Smad3, A204 cells) [1] does the source give for FS315K(81,82,84)E-hFcLALA (Fc fusion) here?
Its Myostatin IC50 (nM), luciferase gene reporter assay (Smad3, A204 cells) is 0.4 nM.

And the Activin A IC50 (nM), luciferase gene reporter assay (Smad3, A204 cells) [2]?
The Activin A IC50 (nM), luciferase gene reporter assay (Smad3, A204 cells) was 1 nM.

What does the source list for “FS315WT-hFc (from UniProt P19883 30-344) (Fc fusion)”?
Kd [3]: 1 to 2 pM; Kd [4]: 114 nM; Myostatin IC50 (nM), luciferase gene reporter assay (Smad3, A204 cells) [1]: 0.4 nM; Activin A IC50 (nM), luciferase gene reporter assay (Smad3, A204 cells) [2]: 0.7 nM; Kd [5]: 0.14 nM; Kd [6]: 6 to 10 pM; Kd [7]: 1 to 2 pM

How did the Myostatin IC50 (nM), luciferase gene reporter assay (Smad3, A204 cells) [1] turn out when FS315ΔHBS-hFcLALA (Fc fusion) was run?
The Myostatin IC50 (nM), luciferase gene reporter assay (Smad3, A204 cells) was 0.4 nM.

Which results are given for “monoFS315K(76,81,82)E-hFcLALA (Fc fusion)”?
Kd [4]: 40.6 nM; Kd [6]: < 4 pM

For monoFS315wt-hFcLALA (Fc fusion), which Kd [4] is on record?
Its Kd is 12.8 nM.

What about the Kd [6] of the same substance?
Its Kd is 2.89 pM.
